{"source": "patent US20230405133A1", "about": "“PURIFIED MULTIVALENT PROTEIN-HYALURONIC ACID POLYMER CONJUGATES” (Valitor, Inc., priority 2022, published 2023)", "binders": {"B1": {"name": "Conjugate 8 (anti-VEGF E1-1 SEQ ID NO: 81 with aH linker SEQ ID NO: 21 on hyaluronic acid, intermediate 5-7) (VHH)", "VHH": "EVQLQASGGGFVQPGGSLRLSCAASGGGSDAGTMGWFRQAPGKEREFVSAISWAGTAWRYYADSVKGRFTISRDNSKNTVYLQMNSLRAEDTATYYCALGSYEMDHHYWGQGTQVTVSS", "modifications": "C-terminal Cys of the peptide linker bound by its thiol to the maleimide of the organic linker MP2H on hyaluronic acid (830 kDa)", "notes": "Multivalent peptide-hyaluronic acid conjugate (MVP); peptide valency 94; Method 5 intermediate; also called anti-VEGF E1-1 MVP (Method 5)"}, "B2": {"name": "Conjugate 10 (anti-VEGF E1-1 SEQ ID NO: 81 with aH linker SEQ ID NO: 21 on hyaluronic acid, intermediate 2-4) (VHH)", "VHH": "B1 VHH", "modifications": "C-terminal Cys of the peptide linker bound by its thiol to the maleimide of the organic linker MP2H on hyaluronic acid (830 kDa)", "notes": "Multivalent peptide-hyaluronic acid conjugate (MVP); peptide valency 136; Method 2 intermediate; also called anti-VEGF E1-1 MVP (Method 2)"}, "B3": {"name": "Conjugate 11 (anti-VEGF E1-1 SEQ ID NO: 81 with aH linker SEQ ID NO: 21 on hyaluronic acid, intermediate 5-2) (VHH)", "VHH": "B1 VHH", "modifications": "C-terminal Cys of the peptide linker bound by its thiol to the maleimide of the organic linker MP2H on hyaluronic acid (830 kDa)", "notes": "Multivalent peptide-hyaluronic acid conjugate (MVP); peptide valency 47; Method 5 intermediate"}, "B4": {"name": "Conjugate 9 (anti-VEGF E1-1 SEQ ID NO: 81 with aH linker SEQ ID NO: 21 on hyaluronic acid, intermediate 5-9) (VHH)", "VHH": "B1 VHH", "modifications": "C-terminal Cys of the peptide linker bound by its thiol to the maleimide of the organic linker MP2H on hyaluronic acid (830 kDa)", "notes": "Multivalent peptide-hyaluronic acid conjugate (MVP); peptide valency 51; Method 5 intermediate"}, "B5": {"name": "Conjugate 1 (anti-VEGF DARPin SEQ ID NO: 92 on hyaluronic acid, intermediate 5-4) (designed binder)", "chain": "GSDLDKKLLEAARAGQDDEVRILMANGADVNARDSTGWTPLHLAAPWGHPEIVEVLLKNGADVNAADFQGWTPLHLAAAVGHLEIVEVLLKYGADVNAQDKFGKTAFDISIDNGNEDLAEILQKAAGGGSGGGS", "modifications": "peptide bound through the organic linker MP2H to hyaluronic acid (830 kDa); site of attachment not stated", "notes": "Multivalent peptide-hyaluronic acid conjugate (MVP); peptide valency 68; Method 5 intermediate (high EDC, N-acylurea adducts); also called DARPin MVP (Method 5)"}, "B6": {"name": "Conjugate 3 (anti-VEGF DARPin SEQ ID NO: 92 on hyaluronic acid, intermediate 5-5) (designed binder)", "chain": "B5 chain", "modifications": "peptide bound through the organic linker MP2H to hyaluronic acid (830 kDa); site of attachment not stated", "notes": "Multivalent peptide-hyaluronic acid conjugate (MVP); peptide valency 67; Method 5 intermediate; also called DARPin MVP (Method 5)"}, "B7": {"name": "Conjugate 2 (anti-VEGF DARPin SEQ ID NO: 92 on hyaluronic acid, intermediate 1-7) (designed binder)", "chain": "B5 chain", "modifications": "peptide bound through the organic linker MP2H to hyaluronic acid (830 kDa); site of attachment not stated", "notes": "Multivalent peptide-hyaluronic acid conjugate (MVP); peptide valency 117; Method 1 intermediate; also called DARPin MVP (Method 1)"}, "B8": {"name": "Conjugate 15 (anti-VEGF VHH SEQ ID NO: 91 with aH linker SEQ ID NO: 21 on hyaluronic acid, intermediate 5-10) (VHH)", "VHH": "DVQLVESGGGLVQPGGSLRLSCAASGRTFSSYSMGWFRQAPGKEREFVVAISKGGYKYDAVSLEGRFTISRDNAKNTVYLQINSLRPEDTAVYYCASSRAYGSSRLRLADTYEYWGQGTLVTVSS", "modifications": "C-terminal Cys of the peptide linker bound by its thiol to the maleimide of the organic linker EMCH on hyaluronic acid (830 kDa)", "notes": "Multivalent peptide-hyaluronic acid conjugate (MVP); peptide valency 59; Method 5 intermediate 5-10, made with EMCH instead of MP2H; also called BI VHH anti-VEGF MVP"}, "B9": {"name": "Conjugate 17 (anti-VEGF VHH SEQ ID NO: 91 on hyaluronic acid, intermediate 1-7) (VHH)", "VHH": "B8 VHH", "modifications": "peptide bound through the organic linker MP2H to hyaluronic acid (830 kDa); site of attachment not stated", "notes": "Multivalent peptide-hyaluronic acid conjugate (MVP); peptide valency 90; Method 1 intermediate; also called BI VHH anti-VEGF MVP"}, "B10": {"name": "Conjugate 23 (anti-VEGF VHH SEQ ID NO: 91 with aH linker SEQ ID NO: 21 on hyaluronic acid, intermediate 1-11) (VHH)", "VHH": "B8 VHH", "modifications": "C-terminal Cys of the peptide linker bound by its thiol to the maleimide of the organic linker MP2H on hyaluronic acid (830 kDa)", "notes": "Multivalent peptide-hyaluronic acid conjugate (MVP); peptide valency 33; Method 1 intermediate; also called BI VHH anti-VEGF MVP"}}, "key": {"[1]": {"target": "T1, Human VEGF 165 (human, UniProt P15692-4 27-191)", "T1 construct": "Loaded on the BLI probe as the ligand; also called BLI ligand Human VEGF 165 (Avi tag, R&D Systems AVI-293-050); not shown: Avi tag", "assay": "BLI, VEGF 165 on probe; sample aged 3 days at 37 °C; aged 3 days at 37 C (sample 1)"}, "[2]": {"target": "T1, Human VEGF 165", "assay": "BLI, VEGF 165 on probe, conjugate as analyte, t = 0; t = 0, fresh conjugate, not aged"}, "[3]": {"target": "T1, Human VEGF 165", "assay": "BLI; KD after 3 days at 37 °C against KD at t = 0; fold change of KD, 3 days at 37 C against t = 0"}, "[4]": {"target": "T1, Human VEGF 165", "assay": "BLI, VEGF 165 on probe, conjugate as analyte, t = 0"}, "[5]": {"target": "T1, Human VEGF 165", "assay": "BLI; KD after 5 days at 37 °C against KD at t = 0"}, "[6]": {"target": "T1, Human VEGF 165", "assay": "BLI; KD after 3 days at 37 °C against KD at t = 0"}, "[7]": {"target": "T1, Human VEGF 165", "assay": "BLI, VEGF 165 on probe, t = 0 (repeats Table 15)"}, "[8]": {"target": "T1, Human VEGF 165", "assay": "BLI, VEGF 165 on probe; sample aged 3 days at 37 °C"}, "[9]": {"target": "T1, Human VEGF 165", "assay": "BLI, VEGF 165 on probe; sample aged 5 days at 37 °C"}, "[10]": {"target": "T1, Human VEGF 165", "assay": "BLI, VEGF 165 on probe; sample aged 32 days at 37 °C"}, "[11]": {"target": "T1, Human VEGF 165", "assay": "BLI; KD after 11 days at 37 °C against KD at t = 0"}, "[12]": {"target": "T1, Human VEGF 165", "assay": "BLI, VEGF 165 on probe, conjugate as analyte, t = 0; value is the limit of detection"}, "[13]": {"target": "T1, Human VEGF 165", "assay": "BLI; KD after 32 days at 37 °C against KD at t = 0"}, "[14]": {"target": "T1, Human VEGF 165", "assay": "BLI, VEGF 165 on probe, t = 0 (repeats Table 15); limit of detection; t = 0, fresh conjugate, not aged"}, "[15]": {"target": "T1, Human VEGF 165", "assay": "BLI, VEGF 165 on probe; sample aged 11 days at 37 °C; limit of detection; aged 11 days at 37 C (sample 1)"}, "[16]": {"target": "T1, Human VEGF 165", "assay": "BLI, VEGF 165 on probe; sample aged 28 days at 37 °C"}, "[17]": {"target": "T1, Human VEGF 165", "assay": "BLI; KD after 28 days at 37 °C against KD at t = 0"}, "[18]": {"target": "T1, Human VEGF 165", "assay": "BLI; KD after 14 days at 37 °C against KD at t = 0"}, "[19]": {"target": "T1, Human VEGF 165", "assay": "BLI, VEGF 165 on probe, t = 0 (repeats Table 15); limit of detection"}, "[20]": {"target": "T1, Human VEGF 165", "assay": "BLI, VEGF 165 on probe; sample aged 14 days at 37 °C; limit of detection"}, "[21]": {"target": "T1, Human VEGF 165", "assay": "BLI, VEGF 165 on probe, conjugate as analyte, t = 0; value is the limit of detection; t = 0, fresh conjugate, not aged"}, "[22]": {"target": "T1, Human VEGF 165", "assay": "BLI, VEGF 165 on probe; sample aged 4 days at 37 °C"}, "[23]": {"target": "T1, Human VEGF 165", "assay": "BLI, VEGF 165 on probe; sample aged 14 days at 37 °C"}, "[24]": {"target": "T1, Human VEGF 165", "assay": "BLI; KD after 4 days at 37 °C against KD at t = 0"}}}
{"binder": "B1", "values": [{"measurement": "Kd", "setting": "[1]", "value": 0.557, "unit": "nM"}, {"measurement": "Kd", "setting": "[2]", "value": 0.184, "unit": "nM"}, {"measurement": "Change in KD to t = 0", "setting": "[3]", "value": 3, "unit": "fold"}]}
{"binder": "B2", "values": [{"measurement": "Kd", "setting": "[4]", "value": 0.123, "unit": "nM"}]}
{"binder": "B3", "values": [{"measurement": "Change in KD to t = 0", "setting": "[5]", "value": 21, "unit": "fold"}, {"measurement": "Change in KD to t = 0", "setting": "[6]", "value": 7, "unit": "fold"}, {"measurement": "Kd", "setting": "[7]", "value": 1.04, "unit": "nM"}, {"measurement": "Kd", "setting": "[8]", "value": 6.75, "unit": "nM"}, {"measurement": "Kd", "setting": "[4]", "value": 1.04, "unit": "nM"}, {"measurement": "Kd", "setting": "[9]", "value": 21.9, "unit": "nM"}]}
{"binder": "B4", "values": [{"measurement": "Kd", "setting": "[4]", "value": 0.678, "unit": "nM"}]}
{"binder": "B5", "values": [{"measurement": "Kd", "setting": "[10]", "value": 0.075, "unit": "nM"}, {"measurement": "Change in KD to t = 0", "setting": "[11]", "value": 1, "unit": "fold"}, {"measurement": "Kd", "setting": "[12]", "value": "< 0.001", "unit": "nM"}, {"measurement": "Change in KD to t = 0", "setting": "[13]", "value": 75, "unit": "fold"}, {"measurement": "Kd", "setting": "[14]", "value": "< 0.001", "unit": "nM"}, {"measurement": "Kd", "setting": "[15]", "value": "< 0.001", "unit": "nM"}]}
{"binder": "B6", "values": [{"measurement": "Kd", "setting": "[12]", "value": "< 0.001", "unit": "nM"}]}
{"binder": "B7", "values": [{"measurement": "Kd", "setting": "[16]", "value": 0.017, "unit": "nM"}, {"measurement": "Change in KD to t = 0", "setting": "[17]", "value": 17, "unit": "fold"}, {"measurement": "Kd", "setting": "[12]", "value": "< 0.001", "unit": "nM"}, {"measurement": "Change in KD to t = 0", "setting": "[18]", "value": 1, "unit": "fold"}, {"measurement": "Kd", "setting": "[19]", "value": "< 0.001", "unit": "nM"}, {"measurement": "Kd", "setting": "[20]", "value": "< 0.001", "unit": "nM"}]}
{"binder": "B8", "values": [{"measurement": "Kd", "setting": "[21]", "value": "< 0.001", "unit": "nM"}]}
{"binder": "B9", "values": [{"measurement": "Kd", "setting": "[22]", "value": 0.713, "unit": "nM"}, {"measurement": "Kd", "setting": "[23]", "value": 0.911, "unit": "nM"}, {"measurement": "Change in KD to t = 0", "setting": "[18]", "value": 228, "unit": "fold"}, {"measurement": "Kd", "setting": "[7]", "value": 0.004, "unit": "nM"}, {"measurement": "Change in KD to t = 0", "setting": "[24]", "value": 178, "unit": "fold"}, {"measurement": "Kd", "setting": "[4]", "value": 0.004, "unit": "nM"}]}
{"binder": "B10", "values": [{"measurement": "Kd", "setting": "[22]", "value": 6.96, "unit": "nM"}, {"measurement": "Kd", "setting": "[23]", "value": 1.95, "unit": "nM"}, {"measurement": "Kd", "setting": "[12]", "value": "< 0.001", "unit": "nM"}, {"measurement": "Change in KD to t = 0", "setting": "[18]", "value": 1950, "unit": "fold"}, {"measurement": "Change in KD to t = 0", "setting": "[24]", "value": 6960, "unit": "fold"}, {"measurement": "Kd", "setting": "[19]", "value": "< 0.001", "unit": "nM"}]}
